Experimental data as given in patent US7205275 (dated 2007).
Primed or numbered codes have the meaning given here. Where no end group is shown, it is not given here. [ ]: non-standard residue; d: D form. Fc(4) = non-antigen-binding fragment of an antibody (from proteolytic digestion of a whole antibody); Fc = immunoglobulin Fc domain fused to the peptide (peptibody); Fc(7) = Fc domain, peptide fused N- or C-terminal to it

T1: human Ang-2 (human, UniProt O15123)
T1 chain: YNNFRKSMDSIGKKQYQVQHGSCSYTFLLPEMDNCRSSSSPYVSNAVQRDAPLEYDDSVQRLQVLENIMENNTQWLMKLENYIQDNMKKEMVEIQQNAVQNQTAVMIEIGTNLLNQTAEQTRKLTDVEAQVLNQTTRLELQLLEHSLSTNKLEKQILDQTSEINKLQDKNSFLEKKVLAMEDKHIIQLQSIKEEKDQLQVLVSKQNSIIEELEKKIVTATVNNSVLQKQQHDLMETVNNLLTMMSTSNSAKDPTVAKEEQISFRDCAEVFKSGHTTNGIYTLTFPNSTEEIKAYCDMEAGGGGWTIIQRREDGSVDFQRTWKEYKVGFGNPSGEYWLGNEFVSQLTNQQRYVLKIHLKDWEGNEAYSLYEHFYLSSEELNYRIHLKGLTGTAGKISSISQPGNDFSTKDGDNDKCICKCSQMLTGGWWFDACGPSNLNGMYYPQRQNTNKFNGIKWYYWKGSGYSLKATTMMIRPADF


Target: T1, human Ang-2
Experiment: competition ELISA vs Tie-2

IC50 [nM] | Binder
3.75 | M[Fc(4)]GGGGGAQTTIGSMCQWDPWTCAHMQGGLE (not fully specified (bridges); cysteine pairing not given here) [Con4-C2 (C)]
0.3 | M[Fc]GGGGGAQPVNQEDCEWDPWTCEHMPPMLE (not fully specified; cysteine pairing not given here) [Con4-39 (C)]
> 1000 | M[Fc(7)]GGGGGAQGPAQEECEWDPWTCEPLPLMLE (not fully specified (bridges); cysteine pairing not given here) [Con4-30 (C)]
0.38 | M[Fc(4)]GGGGGAQHGQNMECEWDPWTCEHMFRYLE (not fully specified; cysteine pairing not given here) [Con4-50 (C)]
0.4 | M[Fc]GGGGGAQPRLQEECVWDPWTCEHMPLRLE (not fully specified; cysteine pairing not given here) [Con4-38 (C)]
0.26 | M[Fc(4)]GGGGGAQGHSQEECGWDPWTCEHMGTSLE (not fully specified; cysteine pairing not given here) [Con4-48 (C)]
0.31 | M[Fc(7)]GGGGGAQRAPQEDCEWDPWTCAHMDIKLE (not fully specified (bridges); cysteine pairing not given here) [Con4-25 (C)]
0.28 | M[Fc]GGGGGAQKSGQVECNWDPWTCEHMPRNLE (not fully specified; cysteine pairing not given here) [Con4-36 (C)]

Further lines, the binder ahead of its results:

Binder | IC50 [nM]
M[Fc(7)]GGGGGAQFGWSHGCEWDPWTCRLLQGWLE (not fully specified (bridges); cysteine pairing not given here) [Con4-2 (C)] | > 1000
M[Fc(7)]GGGGGAQMFLPNECQWDPWTCSNLPEALE (not fully specified (bridges); cysteine pairing not given here) [Con4-14 (C)] | > 1000
M[Fc(7)]GGGGGAQAVGSQTCEWDPWTCAHLVEVLE (not fully specified (bridges); cysteine pairing not given here) [Con4-16 (C)] | 6.94
M[Fc(7)]GGGGGAQFGWSHGCEWDPWTCEHMGSTLE (not fully specified (bridges); cysteine pairing not given here) [AC2-Con4 (C)] | 0.52
M[Fc(7)]GGGGGAQDKILEECQWDPWTCQFFYGALE (not fully specified (bridges); cysteine pairing not given here) [Con4-3 (C)] | 282
M[Fc(7)]GGGGGAQTSQRVGCEWDPWTCQHLTYTLE (not fully specified (bridges); cysteine pairing not given here) [Con4-23 (C)] | 9.88
M[Fc(7)]GGGGGAQVLGGQGCEWDPWTCRLLQGWLE (not fully specified (bridges); cysteine pairing not given here) [AC4-Con4 (C)] | 1.54
M[Fc(7)]GGGGGAQTWPQDKCEWDPWTCRLLQGWLE (not fully specified (bridges); cysteine pairing not given here) [AC1-Con4 (C)] | > 1000
